Data taken from US20250147051A1, “METHOD FOR DETECTING A TAU PROTEIN IN A SALIVA SAMPLE” (GTINVENT LIMITED, priority 2022, published 2025).

Columns and labels:
[1] = target: dGAE (Homo sapiens, UniProt P10636); assay: Biacore X100 SPR binding kinetics of anti-tau scAbs (scAb captured via HuCk), analyte dGAE; settings: lead scAbs
Procedure: (§1) Surface plasmon resonance (SPR) is widely regarded as the gold standard for real time measurement of protein-protein interactions such as antibody binding. All SPR experiments were carried out using a Biacore X100 machine and HBS EP+ running buffer (GE Healthcare). A ‘capture’ method was followed for affinity measurements, where an anti-human constant kappa chain (HuCk) antibody was conjugated to the surface of a CM5 sensor chip using an amine coupling kit and scAb molecules were immobilised via their HuCk domain. Amine coupling is a very common approach for immobilising the ligand to the chip surface. The chip surface has a dextran matrix derivatised with carboxyl groups, which after activation with N-hydroxysuccinimide (NHS) and 1-ethyl-3-(3-dimethylaminopropyl) carbodiimide (EDC), form reactive succinimide esters which allows the covalent capturing of the ligand via any available primary amine groups (e.g. Lysine) on the ligand (in this case anti-HuCk antibody). The capture antibody was diluted 1/100 in 10 mM Sodium acetate buffer pH 5.0 and passed over the activated chip surface for a period of at least 420 s. Final ligand immobilisation levels over 12,000 RU were deemed to be satisfactory.
Following immobilisation, the level of each scAb to be captured was identified using the standard SPR equation with a theoretical RMax of 100 RU. Analyte MW refers to the molecular weight of hT40 or dGA/dGAE molecules, while ligand MW refers to the molecular weight of the scAbs tested. RLis the desired capture level and S refers to the stoichiometric ratio:
The scAb to be tested was added only to flow cell 2 so that flow cell 1 could act as a control to subtract any interaction with the analyte and the chip surface. Both single and multi-cycle runs were utilised using wizards developed in the Biacore X100 control software which are both accepted methods of kinetic analysis (Karlsson, R., et al. Analyzing a kinetic titration series using affinity biosensors (2006) Analytical Biochemistry 349:136-47). The multi-cycle protocol was as follows-Three start-up cycles composed of an initial capture, to the desired level, of the scAb to be tested was performed followed by a 30 s injection of glycine buffer pH 2.0 after each cycle to regenerate the chip surface. The regeneration step removed any captured scAb whilst leaving the capture antibody intact and able to repeat the capture for the next cycle. […]
(§2) The single cycle kinetics protocol was similar and utilised the same level of scAb capture. […] Binding responses were analysed in Biacore X100 evaluation software and data fitted to a 1:1 binding model to obtain kinetic and affinity characterisation.

[2] = target: hT40 (Homo sapiens, UniProt P10636); assay: Biacore X100 SPR binding kinetics of anti-tau scAbs (scAb captured via HuCk), analyte hT40; settings: lead scAbs, Table 23
Procedure: as §1, with “The chip surface has a dextran matrix derivatised with carboxyl groups, which after activation with N-hydroxysuccinimide (NHS) and 1-ethyl-3-(3-dimethylaminopropyl) carbodiimide (EDC), form reactive succinimide esters which allows the covalent capturing of the ligand via any available primary amine groups (e.g. Lysine) on the ligand (in this case anti-HuCk antibody).” left out
Following immobilisation, the level of each scAb to be captured was identified using the standard SPR equation with a theoretical RMax of 100 RU. Analyte MW refers to the molecular weight of hT40 or dGA/dGAE molecules, while ligand MW refers to the molecular weight of the scAbs tested. […]
as §2

dGAE, sequence (P10636 614-708): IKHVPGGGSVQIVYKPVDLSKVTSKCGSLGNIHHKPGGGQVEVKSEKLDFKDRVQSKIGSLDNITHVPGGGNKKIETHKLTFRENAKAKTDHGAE
hT40, sequence (P10636 1-441 isoform P10636-8): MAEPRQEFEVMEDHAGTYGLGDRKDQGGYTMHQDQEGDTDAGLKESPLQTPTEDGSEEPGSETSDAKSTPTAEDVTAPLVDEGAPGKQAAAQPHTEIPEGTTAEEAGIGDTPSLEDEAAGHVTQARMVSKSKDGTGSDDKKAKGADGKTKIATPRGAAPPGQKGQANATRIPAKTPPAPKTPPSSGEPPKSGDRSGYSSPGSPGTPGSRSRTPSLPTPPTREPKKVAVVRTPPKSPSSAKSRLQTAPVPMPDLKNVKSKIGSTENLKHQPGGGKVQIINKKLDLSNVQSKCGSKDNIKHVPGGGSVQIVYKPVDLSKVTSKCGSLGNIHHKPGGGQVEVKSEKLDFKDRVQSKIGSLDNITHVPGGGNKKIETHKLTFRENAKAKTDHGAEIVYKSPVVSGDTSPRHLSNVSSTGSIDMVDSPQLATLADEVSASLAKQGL

B1: E2E8: anti-tau clone, SEQ ID NO: 248 (protein)
scFv: QVQLQESGPSLVKPSQTLSLTCTVSGFSLTDRGVAWVRQAPGKALEWVGTMRSGGTIDYNPALKSRLSITRDTSKSQVFLSLSSVTTEDMAMYYCARGYLSGDRYAWGRGLLVTVSSEGKSSGASGESKVDDQAVLTQPSSVSKSLGQSVSIACSGSRSDIGYGNYVSWFQQIPGSAPKLLIYDTNTRASGVPDRFSGARSGNTATLTINSLQAEDEADYYCANIDSSRSHLFGSGTRLTVLG
modifications: E2E8 amino acid sequence
[1]; Table 24
  ka: 477000 M⁻¹ s⁻¹
[1]; Table 24, dissociation rate
  dissociation rate constant (koff): 0.0001915 s⁻¹
[2]
  T441 binding (result in words): No T441 binding
